Values belong to the molecule of their own block, whether it stands above or below them.
Experiments:
[1] = target: wildtype Chinese hamster BiP, unmodified (BiP^WT) (Chinese hamster (Cricetulus griseus)) (UniProt G3I8R9)
[2] = target: wildtype Chinese hamster BiP, unmodified (BiP^WT) (UniProt G3I8R9); experiment: BLI; conditions: trace 3; association in presence of ATP; signal at end of association step (20 min); parent is trace 1; parent: est. 4.2; read off a plot
[3] = target: AMPylated wildtype Chinese hamster BiP (BiP^WT-AMP) (UniProt G3I8R9); experiment: BLI; conditions: trace 6; AMPylated BiP WT; association in presence of ATP; signal at end of association step (20 min); parent is trace 4; parent: est. 0.95; read off a plot
[4] = target: T1, Chinese hamster BiP T229A-V461F double mutant (BiP^T229A-V461F), unmodified (Chinese hamster (Cricetulus griseus), UniProt G3I8R9 19-654, T229A | V461F); experiment: BLI; Octet RED96, streptavidin sensors saturated with biotinylated GST-J (no P15); BiP^T229A-V461F at different concentrations in solution, 1 mM ATP in baseline, association and dissociation; HKM with 0.05% Triton X-100, 24°C; KD from steady state binding signals; binding sensitive to increasing KCl; conditions: both partners purified
T1 construct: BiP (Grp78), Chinese hamster (Cricetulus griseus); Construct limits: see note of m1; source: E. coli M15, purified (Ni-NTA)
T1 sequence (G3I8R9 19-654 T229A/V461F): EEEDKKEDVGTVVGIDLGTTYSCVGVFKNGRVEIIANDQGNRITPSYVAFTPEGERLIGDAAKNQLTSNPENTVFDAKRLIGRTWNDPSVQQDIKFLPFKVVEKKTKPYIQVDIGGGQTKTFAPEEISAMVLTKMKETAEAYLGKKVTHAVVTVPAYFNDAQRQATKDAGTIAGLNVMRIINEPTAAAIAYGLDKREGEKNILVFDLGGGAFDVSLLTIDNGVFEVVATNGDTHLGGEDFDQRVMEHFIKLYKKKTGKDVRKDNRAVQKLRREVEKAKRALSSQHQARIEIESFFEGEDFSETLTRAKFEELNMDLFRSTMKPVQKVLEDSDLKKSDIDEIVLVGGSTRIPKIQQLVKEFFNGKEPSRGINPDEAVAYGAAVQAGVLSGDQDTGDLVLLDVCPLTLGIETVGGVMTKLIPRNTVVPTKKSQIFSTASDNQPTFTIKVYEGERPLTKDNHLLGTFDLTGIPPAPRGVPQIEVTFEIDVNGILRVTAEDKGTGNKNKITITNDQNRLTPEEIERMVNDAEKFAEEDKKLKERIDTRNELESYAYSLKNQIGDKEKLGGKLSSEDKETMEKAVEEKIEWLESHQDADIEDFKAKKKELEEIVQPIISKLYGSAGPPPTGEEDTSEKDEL

[5] = target: T2, AMPylated Chinese hamster BiP T229A-V461F double mutant (AMPylated BiP^T229A-V461F) (Chinese hamster (Cricetulus griseus), UniProt G3I8R9 19-654, T229A | V461F, AMP on threonine 518 (T518-AMP)); experiment: as above; conditions: both partners purified
T2 construct: BiP (Grp78), Chinese hamster (Cricetulus griseus); Construct limits: see note of m1; source: E. coli M15, purified (Ni-NTA)
T2 sequence (G3I8R9 19-654 T229A/V461F): as above

[6] = target: T3, Chinese hamster BiP T518E mutant (BiP^T518E) (Chinese hamster (Cricetulus griseus), UniProt G3I8R9 19-654, T518E); experiment: BLI; Octet RED96, streptavidin sensors with biotinylated GST-J (to 0.4 nm) then saturated with biotinylated P15; BiP 15 µM in HKM with 0.05% Triton X-100 and 2 mM ATP for association; dissociation in protein-free solution with 2 mM ADP or ATP; 24°C; one-phase decay fit of the dissociation; conditions: both partners purified
T3 construct: BiP (Grp78), Chinese hamster (Cricetulus griseus); Mimics aspects of AMPylation; Construct limits: see note of m1; source: E. coli M15, purified (Ni-NTA)
T3 sequence (G3I8R9 19-654 T518E): as the sequence (G3I8R9 19-654 T229A/V461F) above, with A211T, F443V, T500E counted along it

[7] = target: T4, AMPylated wildtype Chinese hamster BiP (BiP^WT-AMP) (Chinese hamster (Cricetulus griseus), UniProt G3I8R9 19-654, AMP on threonine 518 (T518-AMP)); experiment: as above; conditions: both partners purified
T4 construct: BiP (Grp78), Chinese hamster (Cricetulus griseus); Same construct as m1, AMPylated at high stoichiometry (intact mass spectrometry); Construct limits: see note of m1; also called BiP-AMP; AMPylated BiP; source: E. coli M15, purified (Ni-NTA)
T4 sequence (G3I8R9 19-654): as the sequence (G3I8R9 19-654 T229A/V461F) above, with A211T, F443V counted along it

[8] = target: T5, wildtype Chinese hamster BiP, unmodified (BiP^WT) (Chinese hamster (Cricetulus griseus), UniProt G3I8R9 19-654); experiment: as above; conditions: both partners purified
T5 construct: BiP (Grp78), Chinese hamster (Cricetulus griseus); also called Grp78; haBiP; source: E. coli M15, purified (Ni-NTA); unmodified control from mock AMPylation reactions without enzyme
T5 sequence (G3I8R9 19-654): as the sequence (G3I8R9 19-654 T229A/V461F) above, with A211T, F443V counted along it

Sequence of wildtype Chinese hamster BiP, unmodified (BiP^WT) (Chinese hamster (Cricetulus griseus)) (G3I8R9 19-654): as the sequence (G3I8R9 19-654 T229A/V461F) above, with A211T, F443V counted along it

B1: wildtype J-domain of mouse P58/ERdj6 (residues 384-470) fused to GST (GST-J^WT) (domain or fragment, UniProt Q91YW3 384-470, looked up)
chain: QRLLKQSQKRDYYKILGVKRNAKKQEIIKAYRKLALQWHPDNFQNEEEKKKAEKKFIDIAAAKEVLSDPEMRKKFDDGEDPLDAESQ
modifications: biotinylated with Biotin-maleimide for the BLI experiments (a fraction of the purified protein); not biotinylated in pull-down, SEC and ATPase assays
notes: J-domain of P58/ERdj6, mouse, residues 384-470; also called model J-domain
- Kd [4]: ~14 µM
- Kd [5]: ~14 µM

B2: biotinylated GST-J^WT and biotinylated P15 substrate peptide co-immobilized on a streptavidin BLI sensor (other, mouse)
chain: QRLLKQSQKRDYYKILGVKRNAKKQEIIKAYRKLALQWHPDNFQNEEEKKKAEKKFIDIAAAKEVLSDPEMRKKFDDGEDPLDAESQ
peptide: ALLLSAPRRGAGKK
modifications: biotinylated with Biotin-maleimide | biotinylated on the C-terminal lysine
notes: J-domain of P58/ERdj6, mouse, residues 384-470; P15 model BiP substrate peptide (Misselwitz et al., 1998); Not a complex: two separately biotinylated ligands on one sensor surface (GST-J to ~0.4 nm signal, then saturation with P15); the signal is not divided among them; also called sensors carrying GST-J^WT and P15; GST-J^WT-coupled sensors; source: GST-J^WT: purified GST-fusion protein, …
- koff [6]: 0.00165 s⁻¹
- koff [7]: 0.00329 s⁻¹
- koff [8]: 0.00079 s⁻¹

Second part, the molecule after the results:

- rate of ATP hydrolysis by BiP in a single-turnover ATPase assay with wildtype GST-J (2 µM) compared with non-functional GST-J^QPD [1]: > 4 fold
Molecule: wildtype J-domain of mouse P58/ERdj6 (residues 384-470) fused to GST (GST-J^WT) (from UniProt Q91YW3 384-470) (domain or fragment)

- response [2]: 0.14 nm
- response [3]: 0.1 nm
Molecule: biotinylated GST-J^WT and biotinylated P15 substrate peptide co-immobilized on a streptavidin BLI sensor (from UniProt Q91YW3) H422Q

From paper PMC5667935, “AMPylation targets the rate-limiting step of BiP’s ATPase cycle for its functional inactivation” (eLife, 2017)
